As usually defined, the Kd is a measure of binding affinity in units of concentration. Lower therefore signals higher affinity.

Here are results for one substance from PMC5970976.

The test concerns the target CHIKV virus-like particles (VLPs, strain 37997) (chikungunya virus (strain 37997)). Briefly: SPR. For orientation: Surface plasmon resonance follows binding to a sensor surface in real time, without labels.

Chain of CHIKV virus-like particles (VLPs, strain 37997) (chikungunya virus (strain 37997)) (Q5XXP3 326-748 limits assumed, chain 1 of 2): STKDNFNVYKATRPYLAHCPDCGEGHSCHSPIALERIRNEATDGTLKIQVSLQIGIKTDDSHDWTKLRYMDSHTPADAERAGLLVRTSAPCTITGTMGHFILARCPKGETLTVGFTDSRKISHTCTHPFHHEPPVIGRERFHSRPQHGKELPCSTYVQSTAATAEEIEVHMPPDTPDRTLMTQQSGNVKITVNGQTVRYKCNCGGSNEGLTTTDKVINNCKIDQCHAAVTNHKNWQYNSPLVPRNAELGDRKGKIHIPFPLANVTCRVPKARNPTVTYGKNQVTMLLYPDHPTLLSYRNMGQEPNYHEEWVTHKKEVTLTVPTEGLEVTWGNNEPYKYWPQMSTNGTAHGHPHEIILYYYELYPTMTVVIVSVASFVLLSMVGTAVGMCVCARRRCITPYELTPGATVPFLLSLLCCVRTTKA
Chain of CHIKV virus-like particles (VLPs, strain 37997) (chikungunya virus (strain 37997)) (Q5XXP3 810-1248 limits assumed, chain 2 of 2): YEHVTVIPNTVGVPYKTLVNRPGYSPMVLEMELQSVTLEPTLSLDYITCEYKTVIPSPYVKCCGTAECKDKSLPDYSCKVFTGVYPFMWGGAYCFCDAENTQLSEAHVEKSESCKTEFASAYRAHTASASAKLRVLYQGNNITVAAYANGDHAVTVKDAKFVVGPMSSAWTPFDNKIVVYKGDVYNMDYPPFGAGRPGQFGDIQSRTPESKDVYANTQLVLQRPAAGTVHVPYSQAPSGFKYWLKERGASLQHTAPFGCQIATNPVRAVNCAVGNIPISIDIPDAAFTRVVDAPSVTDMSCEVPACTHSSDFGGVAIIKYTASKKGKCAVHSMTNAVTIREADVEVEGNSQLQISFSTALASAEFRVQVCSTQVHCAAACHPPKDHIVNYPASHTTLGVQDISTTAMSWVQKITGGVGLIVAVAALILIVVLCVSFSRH

Substance “Mxra8 cleaved from the IgG backbone (recombinant Mxra8 from Mxra8-HRV-Fc) (from UniProt Q9DBV4 22-336) (domain or fragment)” yielded a Kd of 0.2 µM. This lies in the sub-micromolar range.
